± gives the uncertainty stated by the source.
Test: self-splicing fitness, log relative to wild type (ln ratio); higher = more splicing; Tetrahymena group I intron in knt gene, E. coli kanamycin selection, DiMSum; sequences stand for … in CUCUCU…GGAGGGAAAAGUUAUCAGGCAUGCACCUGGUAGCUAGUCUUUAAACCAAUAGAUUGCAUCGGUUUAAAAGGCAAGACCGUCAAAUUGCGGGAAAGGGGUCAACAGCCGUUCAGUACCAAGUCUCAGGGGAAACUUUGAGAUGGCCUUGCAAAGGGUAUGGUAAUAAGCUGACGGACAUGGUCCUAACCACGCAGCCAAGUCCUAAGUCAACAGAUCUUCUGUUGAUAUGGAUGCAGUUCACAGACUAAAUGUCGGUCGGGGAAGAUGUAUUCUUCUCAUAAGAUAUAGUCGGACCUCUCCUUAAUGGGAGCUAGCGGAUGAAGUGAUGCAACACUGGAGCCGCUGGGAACUAAUUUGUAUGCGAAAGUAUAUUGAUUAGUUUUGGAGUACUCGUGGUCG
In short: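 DiMSum derived fitness as the error-weighted combination of fold changes across replicates, kanamycin versus no kanamycin, normalised to wild type. E. coli BL21(DE3) held the library, which randomised all eight P1ex-region intron nucleotides within the knt kanamycin-resistance gene on pET-22b(+). Six replicate transformations grew overnight at 37°C or 30°C on LB agar with or without 25 μg/mL kanamycin, also containing 100 μg/mL carbenicillin, 50 μM IPTG and 0.2% rhamnose, and pooled colonies were amplicon-sequenced on an Illumina HiSeq 2500.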

With UAUGAGCAAUAUUACGGGAA the “self-splicing fitness (ln)” value (37 °C) was -2.7 ± 0.41.

In the case of AGGUAGCAAUAUUACGUUGG, the “self-splicing fitness (ln)” value (30 °C) is reported as -3.813 ± 0.028 and the “self-splicing fitness (ln)” value (37 °C) is reported as -2.95 ± 0.041.

In the case of CUACAGCAAUAUUACGCUGA, the “self-splicing fitness (ln)” value (30 °C) is reported as -3.41 ± 0.28.

For CACAAGCAAUAUUACGCUGU, the “self-splicing fitness (ln)” value (30 °C) was -3.78 ± 0.17 and the “self-splicing fitness (ln)” value (37 °C) was -2.57 ± 0.18.

With UGUGAGCAAUAUUACGAGGA the “self-splicing fitness (ln)” value (30 °C) was -2.55 ± 0.29 and the “self-splicing fitness (ln)” value (37 °C) was -2.89 ± 0.31.

In the case of GUGUAGCAAUAUUACGCACU, the “self-splicing fitness (ln)” value (30 °C) is reported as -2.59 ± 0.41 and the “self-splicing fitness (ln)” value (37 °C) is reported as -2.13 ± 0.33.

For CGAAAGCAAUAUUACGGAGA, the “self-splicing fitness (ln)” value (30 °C) was -2.59 ± 0.29 and the “self-splicing fitness (ln)” value (37 °C) was -1.58 ± 0.37.

In the case of UAACAGCAAUAUUACGGGGC, the “self-splicing fitness (ln)” value (30 °C) is reported as -3.63 ± 0.19 and the “self-splicing fitness (ln)” value (37 °C) is reported as -2.86 ± 0.24.

In the case of CAGUAGCAAUAUUACGAACG, the “self-splicing fitness (ln)” value (30 °C) is reported as -0.0483 ± 0.12 and the “self-splicing fitness (ln)” value (37 °C) is reported as -0.375 ± 0.14.

For AUGAAGCAAUAUUACGGAAA, the “self-splicing fitness (ln)” value (30 °C) was -2.48 ± 0.15 and the “self-splicing fitness (ln)” value (37 °C) was -0.666 ± 0.15.

For UCCGAGCAAUAUUACGGAUA, the “self-splicing fitness (ln)” value (30 °C) was -2.34 ± 0.25 and the “self-splicing fitness (ln)” value (37 °C) was -2.61 ± 0.19.

With AGACAGCAAUAUUACGAGGG the “self-splicing fitness (ln)” value (30 °C) was -4.15 ± 0.16 and the “self-splicing fitness (ln)” value (37 °C) was -2.61 ± 0.21.

For CACCAGCAAUAUUACGGAAU, the “self-splicing fitness (ln)” value (30 °C) was -2.97 ± 0.14 and the “self-splicing fitness (ln)” value (37 °C) was -2.18 ± 0.16.

For CGUAAGCAAUAUUACGCGGG, the “self-splicing fitness (ln)” value (30 °C) was -2.35 ± 0.15 and the “self-splicing fitness (ln)” value (37 °C) was -2.72 ± 0.25.

For GGAAAGCAAUAUUACGCGCA, the “self-splicing fitness (ln)” value (30 °C) was -0.291 ± 0.16 and the “self-splicing fitness (ln)” value (37 °C) was -0.139 ± 0.17.

With ACGAAGCAAUAUUACGGGCA the “self-splicing fitness (ln)” value (30 °C) was -1.46 ± 0.068 and the “self-splicing fitness (ln)” value (37 °C) was -0.631 ± 0.075.

For CACCAGCAAUAUUACGCGUG, the “self-splicing fitness (ln)” value (30 °C) was -3.74 ± 0.16 and the “self-splicing fitness (ln)” value (37 °C) was -2.44 ± 0.13.

For UUAGAGCAAUAUUACGUAGA, the “self-splicing fitness (ln)” value (30 °C) was -2.18 ± 0.17 and the “self-splicing fitness (ln)” value (37 °C) was -1.41 ± 0.19.

With UGUUAGCAAUAUUACGCGGU the “self-splicing fitness (ln)” value (30 °C) was -4.19 ± 0.47.

For UAGUAGCAAUAUUACGACUC, the “self-splicing fitness (ln)” value (30 °C) was -0.329 ± 0.16 and the “self-splicing fitness (ln)” value (37 °C) was 0.405 ± 0.19.

In the case of AGCCAGCAAUAUUACGACGA, the “self-splicing fitness (ln)” value (30 °C) is reported as -1.97 ± 0.1 and the “self-splicing fitness (ln)” value (37 °C) is reported as -1.76 ± 0.12.

In the case of GAUUAGCAAUAUUACGGGAA, the “self-splicing fitness (ln)” value (30 °C) is reported as -1.67 ± 0.26 and the “self-splicing fitness (ln)” value (37 °C) is reported as -3.27 ± 0.43.

In the case of GUCAAGCAAUAUUACGUCAG, the “self-splicing fitness (ln)” value (30 °C) is reported as -3.55 ± 0.23 and the “self-splicing fitness (ln)” value (37 °C) is reported as -3.26 ± 0.37.

In the case of UAGCAGCAAUAUUACGCAUC, the “self-splicing fitness (ln)” value (30 °C) is reported as -4.15 ± 0.47 and the “self-splicing fitness (ln)” value (37 °C) is reported as -3.39 ± 0.26.

With CAAGAGCAAUAUUACGUUGA the “self-splicing fitness (ln)” value (30 °C) was -3.98 ± 0.36 and the “self-splicing fitness (ln)” value (37 °C) was -2.94 ± 0.21.

For GGUAAGCAAUAUUACGAUCC, the “self-splicing fitness (ln)” value (37 °C) was -1.74 ± 0.42.

In the case of UAGAAGCAAUAUUACGGUCU, the “self-splicing fitness (ln)” value (30 °C) is reported as -0.542 ± 0.11 and the “self-splicing fitness (ln)” value (37 °C) is reported as 0.318 ± 0.11.

In the case of AGAAAGCAAUAUUACGCACC, the “self-splicing fitness (ln)” value (30 °C) is reported as 0.221 ± 0.098 and the “self-splicing fitness (ln)” value (37 °C) is reported as 0.0714 ± 0.12.

For CUAAAGCAAUAUUACGUCGC, the “self-splicing fitness (ln)” value (30 °C) was -3.42 ± 0.15 and the “self-splicing fitness (ln)” value (37 °C) was -2.63 ± 0.23.

With CACAAGCAAUAUUACGUCCG the “self-splicing fitness (ln)” value (30 °C) was -0.428 ± 0.094 and the “self-splicing fitness (ln)” value (37 °C) was 0.252 ± 0.12.

In the case of UCCGAGCAAUAUUACGGUAG, the “self-splicing fitness (ln)” value (30 °C) is reported as -3.6 ± 0.14 and the “self-splicing fitness (ln)” value (37 °C) is reported as -2.43 ± 0.15.

For UGACAGCAAUAUUACGCGCU, the “self-splicing fitness (ln)” value (30 °C) was -0.554 ± 0.086 and the “self-splicing fitness (ln)” value (37 °C) was -0.657 ± 0.099.

With AACGAGCAAUAUUACGUCUA the “self-splicing fitness (ln)” value (30 °C) was -2.06 ± 0.17 and the “self-splicing fitness (ln)” value (37 °C) was -0.756 ± 0.12.

In the case of GGACAGCAAUAUUACGCGCC, the “self-splicing fitness (ln)” value (30 °C) is reported as -2.93 ± 0.2.

In the case of GGUGAGCAAUAUUACGUCCG, the “self-splicing fitness (ln)” value (30 °C) is reported as -1.13 ± 0.21 and the “self-splicing fitness (ln)” value (37 °C) is reported as -0.66 ± 0.29.

For GAGUAGCAAUAUUACGCUGU, the “self-splicing fitness (ln)” value (30 °C) was -3.36 ± 0.23 and the “self-splicing fitness (ln)” value (37 °C) was -1.48 ± 0.22.

For AAUCAGCAAUAUUACGCGCG, the “self-splicing fitness (ln)” value (30 °C) was 0.0814 ± 0.079 and the “self-splicing fitness (ln)” value (37 °C) was -0.098 ± 0.1.

For CUCUAGCAAUAUUACGGGGU, the “self-splicing fitness (ln)” value (30 °C) was -3.87 ± 0.25 and the “self-splicing fitness (ln)” value (37 °C) was -3.39 ± 0.32.

In the case of CCCGAGCAAUAUUACGAUCA, the “self-splicing fitness (ln)” value (30 °C) is reported as -2.79 ± 0.28 and the “self-splicing fitness (ln)” value (37 °C) is reported as -2.98 ± 0.33.

In the case of UGGCAGCAAUAUUACGUCAA, the “self-splicing fitness (ln)” value (30 °C) is reported as -1.16 ± 0.099 and the “self-splicing fitness (ln)” value (37 °C) is reported as -0.518 ± 0.09.

For GACGAGCAAUAUUACGAGAG, the “self-splicing fitness (ln)” value (30 °C) was -3.77 ± 0.34 and the “self-splicing fitness (ln)” value (37 °C) was -0.809 ± 0.18.

For CGUCAGCAAUAUUACGAGCC, the “self-splicing fitness (ln)” value (30 °C) was -2.25 ± 0.48.

With UUCCAGCAAUAUUACGGAGA the “self-splicing fitness (ln)” value (30 °C) was -1.83 ± 0.084 and the “self-splicing fitness (ln)” value (37 °C) was -0.628 ± 0.081.

With GGGAAGCAAUAUUACGAGAU the “self-splicing fitness (ln)” value (30 °C) was -2.81 ± 0.25 and the “self-splicing fitness (ln)” value (37 °C) was -2.8 ± 0.38.

In the case of ACCUAGCAAUAUUACGUGGU, the “self-splicing fitness (ln)” value (30 °C) is reported as -3.6 ± 0.14 and the “self-splicing fitness (ln)” value (37 °C) is reported as -2.95 ± 0.16.

For CGUAAGCAAUAUUACGACCC, the “self-splicing fitness (ln)” value (30 °C) was -2.71 ± 0.38 and the “self-splicing fitness (ln)” value (37 °C) was -2.23 ± 0.23.

For AAGUAGCAAUAUUACGUAUU, the “self-splicing fitness (ln)” value (30 °C) was -1.97 ± 0.11 and the “self-splicing fitness (ln)” value (37 °C) was -1.07 ± 0.14.

In the case of ACUGAGCAAUAUUACGAGGG, the “self-splicing fitness (ln)” value (30 °C) is reported as -2.5 ± 0.18 and the “self-splicing fitness (ln)” value (37 °C) is reported as -2.21 ± 0.33.

With AGAGAGCAAUAUUACGAAAU the “self-splicing fitness (ln)” value (30 °C) was -3.71 ± 0.33 and the “self-splicing fitness (ln)” value (37 °C) was -1.89 ± 0.24.

In the case of UUAAAGCAAUAUUACGUCUA, the “self-splicing fitness (ln)” value (30 °C) is reported as 0.0872 ± 0.095 and the “self-splicing fitness (ln)” value (37 °C) is reported as 0.626 ± 0.11.

For AAUGAGCAAUAUUACGGGCG, the “self-splicing fitness (ln)” value (37 °C) was -3.07 ± 0.47.

For UAUAAGCAAUAUUACGGGUG, the “self-splicing fitness (ln)” value (30 °C) was -0.65 ± 0.074 and the “self-splicing fitness (ln)” value (37 °C) was 0.0941 ± 0.12.

With ACGUAGCAAUAUUACGAUAA the “self-splicing fitness (ln)” value (30 °C) was -1.52 ± 0.13 and the “self-splicing fitness (ln)” value (37 °C) was -1.51 ± 0.18.

With UCGGAGCAAUAUUACGAAGA the “self-splicing fitness (ln)” value (37 °C) was -2.3 ± 0.42.

In the case of UGGCAGCAAUAUUACGGUAU, the “self-splicing fitness (ln)” value (30 °C) is reported as -3.72 ± 0.24 and the “self-splicing fitness (ln)” value (37 °C) is reported as -1.73 ± 0.17.

With UUUAAGCAAUAUUACGACGC the “self-splicing fitness (ln)” value (30 °C) was -3.48 ± 0.2 and the “self-splicing fitness (ln)” value (37 °C) was -0.476 ± 0.16.

For UCAAAGCAAUAUUACGGUGG, the “self-splicing fitness (ln)” value (30 °C) was -1.79 ± 0.058 and the “self-splicing fitness (ln)” value (37 °C) was -1.05 ± 0.083.

In the case of UGCGAGCAAUAUUACGGCUA, the “self-splicing fitness (ln)” value (30 °C) is reported as 0.388 ± 0.12 and the “self-splicing fitness (ln)” value (37 °C) is reported as 0.499 ± 0.15.

For CGCAAGCAAUAUUACGGUGA, the “self-splicing fitness (ln)” value (30 °C) was -0.78 ± 0.084 and the “self-splicing fitness (ln)” value (37 °C) was -0.469 ± 0.091.

In the case of AGCCAGCAAUAUUACGCAAC, the “self-splicing fitness (ln)” value (30 °C) is reported as -4.16 ± 0.32 and the “self-splicing fitness (ln)” value (37 °C) is reported as -1.4 ± 0.23.

In the case of GGGAAGCAAUAUUACGCUCG, the “self-splicing fitness (ln)” value (30 °C) is reported as -0.703 ± 0.27 and the “self-splicing fitness (ln)” value (37 °C) is reported as -1.03 ± 0.18.

With AACCAGCAAUAUUACGUGAG the “self-splicing fitness (ln)” value (30 °C) was -0.744 ± 0.04 and the “self-splicing fitness (ln)” value (37 °C) was -0.39 ± 0.067.

From the supplement of paper PMC7877785
